In doi:10.1101/683441:

Target: GST-tagged Nedd4-2, full length (mouse)
Test: pull-down

Sequence of GST-tagged Nedd4-2, full length (mouse) (Q8CFI0 whole entry): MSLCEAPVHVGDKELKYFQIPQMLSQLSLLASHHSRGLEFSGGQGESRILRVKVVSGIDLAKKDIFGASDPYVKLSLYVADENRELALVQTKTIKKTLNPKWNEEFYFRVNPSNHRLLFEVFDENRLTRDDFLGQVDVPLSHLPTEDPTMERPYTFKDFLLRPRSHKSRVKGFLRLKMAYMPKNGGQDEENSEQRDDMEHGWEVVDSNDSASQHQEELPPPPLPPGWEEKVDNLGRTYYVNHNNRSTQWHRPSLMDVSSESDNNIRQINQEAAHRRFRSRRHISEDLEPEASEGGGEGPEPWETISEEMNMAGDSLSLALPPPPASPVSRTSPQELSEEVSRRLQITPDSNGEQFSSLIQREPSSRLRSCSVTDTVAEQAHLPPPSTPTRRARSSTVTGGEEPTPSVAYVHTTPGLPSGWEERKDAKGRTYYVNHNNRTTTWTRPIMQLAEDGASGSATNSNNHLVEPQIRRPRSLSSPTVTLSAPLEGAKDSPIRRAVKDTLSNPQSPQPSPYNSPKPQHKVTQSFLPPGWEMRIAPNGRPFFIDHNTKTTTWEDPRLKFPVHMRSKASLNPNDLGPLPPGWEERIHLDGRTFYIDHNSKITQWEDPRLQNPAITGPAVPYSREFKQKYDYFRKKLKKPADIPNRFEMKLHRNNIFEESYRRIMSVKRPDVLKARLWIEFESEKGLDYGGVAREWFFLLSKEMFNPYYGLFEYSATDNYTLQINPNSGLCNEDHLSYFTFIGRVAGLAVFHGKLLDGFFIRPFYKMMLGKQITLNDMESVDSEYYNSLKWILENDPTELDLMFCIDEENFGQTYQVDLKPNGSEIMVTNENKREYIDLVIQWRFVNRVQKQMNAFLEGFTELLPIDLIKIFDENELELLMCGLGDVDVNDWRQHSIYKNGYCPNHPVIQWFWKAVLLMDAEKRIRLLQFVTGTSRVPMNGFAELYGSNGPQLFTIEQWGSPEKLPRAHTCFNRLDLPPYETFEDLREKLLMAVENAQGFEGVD

fold bound against GST-N4-1 [fold]	Molecule
2	HA-tagged Connexin43 (gap junction alpha 1 protein) (from UniProt P23242 1-382) (natural protein)
2	HA-tagged Kir4.1 (inwardly rectifying K+ channel 4.1) (natural protein) MTSVAKVYYSQTTQTESRPLVAPGIRRRRVLTKDGRSNVRMEHIADKRFLYLKDLWTTFIDMQWRYKLLLFSATFAGTWFLFGVVWYLVAVAHGDLLELGPPANHTPCVVQVHTLTGAFLFSLESQTTIGYGFRYISEECPLAIVLLIAQLVLTTILEIFITGTFLAKIARPKKRAETIRFSQHAVVASHNGKPCLMIRVANMRKSLLIGCQVTGKLLQTHQTKEGENIRLNQVNVTFQVDTASDSPFLILPLTFYHVVDETSPLKDLPLRSGEGDFELVLILSGTVESTSATCQVRTSYLPEEILWGYEFTPAISLSASGKYIADFSLFDQVVKVASPSGLRDSTVRYGDPEKLKLEESLREQAEKEGSALSVRISNV
